Data published in paper PMC8924070 (Frontiers in Immunology, 2022).
One block for each binder: values may come before it.

What was measured:
Settings in all cases: both partners purified
[1] = biological target: T1, PD-1-ECD (PD-1-E. coli), extracellular domain of programmed cell death protein 1 expressed in E. coli (Homo sapiens, UniProt Q15116); test: SPR; BIAcore8000, CM5 chip, room temperature; cemiplimab-scFv (695 RU) or camrelizumab-scFv (569 RU) immobilised; PD-1 forms flowed over (PD-1-WT 0-100 nM, PD-1-N58A 50-800 nM, PD-1-E. coli 0-8 μM); 1:1 Langmuir model
T1 construct: PD-1 (programmed cell death protein 1), extracellular domain, UniProt Q15116, residues L25-R147; no glycan, no post-translational modification; Cloned into pET-21a(+); also called non-glycosylated PD-1

[2] = biological target: T2, PD-1-E. coli, extracellular domain of PD-1 (residues L25-R147) expressed in E. coli (Homo sapiens, UniProt Q15116); test: SPR; cemiplimab-scFv (695 RU) or camrelizumab-scFv (569 RU) immobilised on a CM5 chip, PD-1 forms flowed over (PD-1-WT 0-100 nM, PD-1-N58A 50-800 nM, PD-1-E. coli 0-8 uM); BIAcore 8000, room temperature; 1:1 Langmuir binding model; mean of three repeats
T2 construct: programmed cell death protein 1 (PD-1), extracellular domain, residues L25-R147 of UniProt Q15116; no glycans (E. coli); Cloned into pET-21a(+); also called PD-1-ECD; non-glycosylated PD-1

[3] = biological target: T3, PD-1-N58A, extracellular domain of PD-1 (residues L25-R147) with N58A, expressed in 293F cells (Homo sapiens, UniProt Q15116, N58A, glycosylated in 293F cells, specifically deficient in N58 glycosylation); test: as above
T3 construct: programmed cell death protein 1 (PD-1), extracellular domain, residues L25-R147 of UniProt Q15116, N58A; also called N58A-mutated PD-1; N58 glycosylation-deficient PD-1; not shown: His6, C-terminal, kept
T3 sequence (Q15116 25-147 N58A): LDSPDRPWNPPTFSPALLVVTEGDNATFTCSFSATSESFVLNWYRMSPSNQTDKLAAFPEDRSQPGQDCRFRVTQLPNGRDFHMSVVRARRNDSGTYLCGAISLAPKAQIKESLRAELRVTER

T2 sequence (Q15116 25-147): as the sequence (Q15116 25-147 N58A) above, with A34N counted along it
T1 sequence (Q15116 25-147): as the sequence (Q15116 25-147 N58A) above, with A34N counted along it

koff [2]: 0.308 s⁻¹
koff [3]: 0.171 s⁻¹
B2: camrelizumab-scFv (scFv, V domains shown)
VH: EVQLVESGGGLVQPGGSLRLSCAASGFTFSSYMMSWVRQAPGKGLEWVATISGGGANTYYPDSVKGRFTISRDNAKNSLYLQMNSLRAEDTAVYYCARQLYYFDYWGQGTTVTVSS
VL: DIQMTQSPSSLSASVGDRVTITCLASQTIGTWLTWYQQKPGKAPKLLIYTATSLADGVPSRFSGSGSGTDFTLTISSLQPEDFATYYCQQVYSIPWTFGGGTKVEIK
notes: scFv of camrelizumab

koff [2]: 0.047 s⁻¹
koff [3]: 0.0274 s⁻¹
B4: cemiplimab-scFv, single-chain variable fragment of cemiplimab (VL-(GGGGS)4-VH) (scFv, V domains shown)
VH: EVQLLESGGVLVQPGGSLRLSCAASGFTFSNFGMTWVRQAPGKGLEWVSGISGGGRDTYFADSVKGRFTISRDNSKNTLYLQMNSLKGEDTAVYYCVKWGNIYFDYWGQGTLVTVSS
VL: DIQMTQSPSSLSASVGDSITITCRASLSINTFLNWYQQKPGKAPNLLIYAASSLHGGVPSRFSGSGSGTDFTLTIRTLQPEDFATYYCQQSSNTPFTFGPGTVVDFR
notes: VL of cemiplimab; structure of the cemiplimab-scFv/PD-1 complex deposited as PDB 7WVM; linker, printed as GGGGS (4); VH of cemiplimab; Cloned into pET-21a(+); also called REGN2810; Libtayo

Further lines, the binder ahead of its results:

B1: camrelizumab-scFv (scFv, V domains shown)
VH: B2 VH
VL: B2 VL
notes: scFv of camrelizumab; Named only in the SPR methods
Kd [1]: 2630 nM

B3: cemiplimab-scFv (single-chain variable fragment of cemiplimab, VL-(GGGGS)4-VH) (scFv, V domains shown)
VH: B4 VH
VL: B4 VL
notes: VL of cemiplimab; linker, printed as GGGGS (4); VH of cemiplimab; Cloned into pET-21a(+); Used in the crystal and, by the SPR methods, immobilised on the CM5 chip; also called REGN2810; Libtayo
Kd [1]: 691 nM
